From doi:10.1101/2021.12.30.474520, “Substrate Specificity for Human Histidine Methyltransferase SETD3” (bioRxiv, 2021)
Ends that are not written are not given here.

Experiments:
[1] = molecular target: T1, human SETD3 (residues 1-497) (human, UniProt Q86TU7 1-497); assay: ITC; peptide (0.5-1 mM) titrated into SETD3 (0.05 mM) pre-incubated with SAH (1:10); 25 °C; 20 mM Tris-HCl pH 8.0, 150 mM NaCl; one set of binding sites model; conditions: both partners purified
T1 construct: The methods describe one recombinant human SETD3 with an N-terminal His6-tag without giving limits; Whether that protocol and tag apply to the 1-497 construct used for ITC and crystals is surmised; In ITC and in the crystals SETD3 was pre-incubated with SAH or sinefungin (SFG) at 1:10; also called SETD3_(1-497); histidine methyltransferase SETD3
T1 sequence (looked up): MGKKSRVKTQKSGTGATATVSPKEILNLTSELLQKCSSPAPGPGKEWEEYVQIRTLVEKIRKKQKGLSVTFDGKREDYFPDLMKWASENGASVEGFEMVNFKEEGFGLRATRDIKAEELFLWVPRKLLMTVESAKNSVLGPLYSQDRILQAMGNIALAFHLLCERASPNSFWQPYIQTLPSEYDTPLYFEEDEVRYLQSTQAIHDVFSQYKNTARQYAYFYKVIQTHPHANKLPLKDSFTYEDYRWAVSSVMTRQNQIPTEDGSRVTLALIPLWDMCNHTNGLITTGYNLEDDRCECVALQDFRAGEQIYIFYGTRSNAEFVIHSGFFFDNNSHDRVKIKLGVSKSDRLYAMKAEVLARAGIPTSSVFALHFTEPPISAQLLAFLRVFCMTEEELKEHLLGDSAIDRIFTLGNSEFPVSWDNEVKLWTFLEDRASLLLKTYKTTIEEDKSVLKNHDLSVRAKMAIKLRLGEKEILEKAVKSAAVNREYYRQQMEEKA

[2] = molecular target: T1, human SETD3 (residues 1-497); assay: ITC; peptide (0.5-1 mM) titrated into SETD3 (0.05 mM) pre-incubated with sinefungin (SFG) (1:10); 25 °C; 20 mM Tris-HCl pH 8.0, 150 mM NaCl; one set of binding sites model; conditions: both partners purified

B1: β-actin peptide, residues 66-81, with His73 (βA-His73) (peptide, UniProt P60709 66-81, looked up)
peptide: TLKYPIEHGIVTNWDD-NH2
notes: β-actin, human, 16-mer, residues 66-81; Made on Rink amide resin, so a C-terminal amide is surmised; also called wild type βA-His73; wild type β-actin peptide; source: synthetic peptide (microwave-assisted SPPS on Rink amide resin, RP-HPLC)
- Kd [1]: 700 nM
- Kd [2]: 1000 nM
